assay: soluble on expression in E. coli; label from the status in PepcDB or PDB records

**Q.** Which “soluble on expression in E. coli” value does the source give for “MGSDKIHHHHHHMNYTFELKELQATHIVYLHHQGDISLIPSSIRKLMQWAGPKGLINGPANKLISVYQHEGKVLSVDIGLTVPQEVEGESEISKGLLSGGLYAIGHFEIGTDEIPAAWSLMYTLTSKHQCKPCAGKSFEIYQSIPLDQHPQDKCMIDLCIPVQMIDLKLIEEKAISILTECDTAMLASVTEEGYPRPVPMGKIKADGISQIWFSTGTFSDKTIQFQLNPKAGVCFMKGGDSIVLTGKVEIVSDMEIKKALWSDWMFAHFPGGVIDPSYCILKFTSEEATYWIDNEFVKASI” here?
**A.** The value was “not soluble”.

**Q.** For “MGSDKIHHHHHHMNYTQNQKISQITPSTLVIGIDVAKDKHVARAQDDRGLEFGKRLIFENRIHGFELLLEWALRHAKENSKDHIIFGVEPTGHYWLNLAYYLTAKDFDFVLVNPMHVKKSKELDDNSPTKNDTKDAKVISQLIKDGRYSVPNLLDGIYAELREGVKLRDQLIQQLLITEGRIQNIIDRYFPEFFDVFGDWEGKAAFCTLKLFPFPSQIVKMTPEEVLRQWKPFVQRGVGIKRATKLVETAHKSIGITIGSHFAQREMSSLLDQWELFKKQLEELDQELEGVVRTIPGANEMIDITGLGVATVTTVLSEIGDLKKYKHPQQLVNLAGLSLRENSSGKFKGQTTITKRGRSKLRRALYLAIRPLVAHNPTFKALHHYYTKRPDKPLKKQQSLIALCCKLLRVLFVIGQKQCPFDGSKLLQGIPQEKTLQAA”, which “soluble on expression in E. coli” value is on record?
**A.** Its value is “not soluble”.

**Q.** With “MGSDKIHHHHHHMPARPNHLSNNIVFRDGVQVMRMDLHVHTEVSHDCQTRLRDIPAWLLRTNTRVIAITDHDEQRGGPELKRLVADLGLADRLSIIPGEEITTSEGELIGLFLEERIPPGLTPEATVQEIKAQGGLVLLQHGFDPLKRYRLRPEATQRIADQIDMVETFNSRLSRHHWNRVAAEWARARHLPVCAGSDAHTLRDIGEAWVETPFRLIHTPEQLLQALDEGVVGGRWTHPVYAYGLKQWRNLNGRFQRKD” as the sequence, how does the “soluble on expression in E. coli” value read?
**A.** The value was “not soluble”.

**Q.** For “MGSDKIHHHHHHMPAYKVLQKGKTGDLLNVKHLYIKDIQSGEKVQDSFLVTEKNVAYSQKGAPYLNLRLKDKTGQVDGKIWDNALEWDKRFRKGDVVQVNARAVSFRNSLQLSILSLNTLDDSEVILNDYVPTTRMNVEVMFSELQSIIDRIDTPPLKKLLKSFFDDREIAERFKRAPAAKGFHHIYLGGLLEHTHSVTRLLSQIASHYPGVNRDLLLTGGILHDIGKINEFSYDRLVEYSDEGRLIGHIIIGVEMIDEKITAIPDFPAYLAMELRHLILSHHGILEYGSPKRPKTLEALMVHYVDDLDAKVNAFQEYLNDFRDEDTGWTPFHRFLERYLYRGRVQEITAEEPISPKEF”, which “soluble on expression in E. coli” value is on record?
**A.** Its value is “not soluble”.

**Q.** Which “soluble on expression in E. coli” value does the source give for “MGSDKIHHHHHHMPDLFVTNFNRNFTGVSATAANVIRQQVATHDLALVGHALPGCPAPISARAARALSRTPPPGKPFAIWHVRRNPEMQTAIWARDVLRLPIRIVFTSAAIRRHSAFPRWLISRMDAVVATSDAAASFVPHVRAVVPHGVDTDRFTPAPDRPAAWAAQGYGGSFGIATIGRVRPEKGTDLFVEAMLRLLPDMPGAVALVVGRATKEHQKFALTLKDKVQRAGMIDRIRFIDEVPPDRLPDLMRALSLVVQLPRYEGYGMVPLEAMASGVPFVGSDTGFFREFSAQGRAGRVVPLENAGLGAEAARALLADEDVHGAAALAAREIAVESFSAAREAAGIEAVYQQLWSQAAPGA” here?
**A.** Its value is “not soluble”.

**Q.** Which “soluble on expression in E. coli” value does the source give for “MGSDKIHHHHHHMPDMSMFGILNTALTGIHAHKLAMNIVGHNIANASTPGYSRQRPVIEANPPIPLTTLTQPSFPLQMGTGARVKTIVRLRDAFLDVQYRQVNNRYNYWDTVLSNLHFIEQLLAEPGEDGIRSLVDNFWNAFKEVMSDPSSTASKAEVVSRAQQMVSQIKDLYGRLEQLREDIDAEIVQRVSEINQMIKRLADLNNKIRTSMMLNSPPNDLLDERDRILDELSNLANINYTEAEDGQITLRIGNQIVLNGSTYRELRALERPYGKGYHELFVGNSQLILSDGKLKALIDLRDSSIVKYMRKLDEFVLFITDSLNLVHRDGFESNGVTTNLNFFKKIEAFSDDPSIFRIKGNRKLEMGPYHTVTGLHSANSQAEIEGRRFNSNDVVLSFDGGSSNVLNISAGTTIGDLVGSWNLLGTSLKVGTHAGGYRLYLEDSTGSLRNRLFLSLGDSLSQMGFDTETKGYITIKESDLSGLSSGVYNINVEYILEDGTRQTETISVDLSSGVNLSNIEASINSSSHLRAQIYADPSTGENMLVIVPDEQLNFDPSAVKVLSDDDFFTESNAFVRNYEVLKYKDTLENIFYGQTGFDPTRPFTITINSTDIEIDPAVDTLETLVEKINEKNTGVLADLTPHHSLVFRASSLYDFDLRMMEIKGPQGFFEAVGFVDPDGDPTTFDWNTSFTLVSKSDDFTTLSERFKVADILTFDRAPYDEPLNIVNQFEVSSSLATNPANLAVDVGYALENSDWNATSIKPSGGANPELLETIQNLYTRKMLSNGKESFYEFFGGVVSELGVEAETASNLKNNTEILRQEIDNAREEVKGVSLDEEMANMIEYQHAFSAAAKVITAVDQMIQTVINMVG” here?
**A.** Its value is “not soluble”.

**Q.** Which “soluble on expression in E. coli” value does the source give for “MGSDKIHHHHHHMPFAKEKGQPAIYYETIGKGTPIIFIPPPGVGHLTFRYQVPLMNQCKLITFDVRGDCQSERSTEPMTMTQLAYDVKRVLDANCVRKAIVCGYSNGAAIAQEFALTYPERTAGVILIGGYFAVKNFLLEKEYKLGIWAARNELMPLLASGLAKNHFTDKQAANELYAEIMKTDPQMLADQYTTGLHYSSEDRLHQLRVPLLLIYGANDHYLQPYQTRFRELVHDVEIVYIQGVKHQVPSKAPHECNAVLREWMRRKQFIPS” here?
**A.** Its value is “not soluble”.

**Q.** For “MGSDKIHHHHHHMPFQQGLLATPVPAHARHLFFTLQSPEALPAALDALLPQVDGKQLLLGVGAPLAKALGREIPGLRPFPLLDAAVENPSTQHALWLWLRGDERGDLLLRTQALEQALAPALSLADSVDGFLHRGGHDLTGYEDGTENPTDEEAVQAAIAADGSSFAAFQLWKHDLQYFKSLPQADQDNIIGRRLSDNEELDDAPASAHVKRTAQESFEPEAFMVRRSVSWADQRGAGLAFVALGKSFEAFEVQLRRMSGLEDGIIDGLYRFSRPLTGGYYWCPPMSETGVDLSPLLRA”, which “soluble on expression in E. coli” value is on record?
**A.** The value was “not soluble”.

**Q.** Which “soluble on expression in E. coli” value does the source give for “MGSDKIHHHHHHMPGKAKGRSLTAAQFNLRSDRLIAGKALRNVLPRTEQASWQPAQDRRDPIAILEDSNQGRVPELIPIRYGRMLRSPFTFLRGSAAIMAYDLATTPNTGIHVQACGDCHLLNFGLFATPERNLVFDINDFDETHPAPWEWDLKRLAVSFVIAARNNQVVDQEAESIAVSCTRSYREHLRNYSRMSPLEVWYARLEMKEIIEMAPTEKIRKRREEFAERAQKRIAEHLFPKIVTLKEGKHQFVDQPPILFHSNDPTLRNRVINGLQAYRKSLPDERRVLFDRYRLEDYATKVVGIGSVGTHCSIALFFSEENHPLILQVKEARQSVLEPYTQTNCYENQGQRVVVGQRLMQSSSDIFLGWARSDLGRDFYVRQLRDMKFSLPIDGMQAERFHRYAEFCGWALARAHAKAGDAATISGYLGKADAFDEAIAKFAVAYADQTEQDYTALVQAVASGRIEAIVEEDL” here?
**A.** The value was “not soluble”.

**Q.** With “MGSDKIHHHHHHMPHLFYGTAQNGEVIFDEREAHHMRVVRLKEGDVIEATDGNGFSYTCILKSLKKKTAAAKIVKVEEKEKEPTEKLSVVVPIGRWERTRFLIEKCVELGVDEIFFHKFERSQHEISLDKAKIVVREAAKQCKRYLFPKVSFLEKLEFSGNVITLDLDASQNLLDANLEGSITVVVGPEGGFSEKERELLRSSTTIVSLGKKILRFETAAILTVGYIALKKQKI” as the sequence, how does the “soluble on expression in E. coli” value read?
**A.** Its value is “soluble”.

**Q.** For “MGSDKIHHHHHHMPKNRDAARASLENLYRIFTVPEAPDSTLGAIDQAIAGDVAGFLQTHIVAIERPLEEIEADFSSFSIPEEPTYVSEYTEFVKENLVAHSVHTASPAFVGHMTSALPYFMLPLARLMTALNQNVVKVETSKAFTPMERQVLAMLHHLVYGRNDDFYPQWIHNSQHALGAFCSGGTLANVTALWVARNRLFAPDGEFRGIAQEGLARALKHRGADGIAVLVSERGHYSLGKAADLLGIGRDDLIKIKTDANNRIDLKALREECRRLQDRNTLPLALVGIAGTTETGNVDPLEAMADLAQELGCHFHVDAAWGGPTLFSDRHRHLLRGIERADSVTIDGHKQLYVPMGAGMVVFKDPTALSAIEHHANYILRHGSKDLGSHTLEGSRPGKAMLVHAGFSIIGRKGYELLIDMGIERARTFADMIQRHPDFELISEPELNILTYRYCPPAIQQALTDATAQQRAAINGLLDQVCQLLQKYQREAGKTFVSRTRLHVARHDMELTVLRVVLANPLTTDEILEAVLAEQCEIVRLPEIQALLRQAEELCPGLAKAV”, which “soluble on expression in E. coli” value is on record?
**A.** Its value is “not soluble”.

**Q.** For “MGSDKIHHHHHHMPLKRLNRFRLWLWETPPVYEIRGRCFQIKERLCGYPELHRAFRERTGYELSLHHPCTFHHKITVLKIRRSPRIFVRAVDKIFAKELALEWAHQHGFRLYVARTLAVTKDVSEIRWHELPQRFLIKATHRSGANLFVDQSQAFDLDALRVQSRAWLQYPYGVYKHEWAYWPVPRRLLIEELIEPVDGEELVDYKFHMSRGRCLMIQVNQGLRSGKRTIAILHPSWQLQPVKWVYPQPEVIPQRPDTFYEMLEMASAFSREFPYLRVDLYSVKQVMSGVMVSRVMFGEFTFFPGSGSESVDPFAFDLAIGKEIKL”, which “soluble on expression in E. coli” value is on record?
**A.** The value was “not soluble”.

**Q.** Which “soluble on expression in E. coli” value does the source give for “MGSDKIHHHHHHMPRHDDPRYFPISPLLIVPQALGSFSVFIRKDERLILYAKAGETFTERHSRRLHENGTSEVYVRVDQRQNFGLYLERHLAHILEDDRLPVEHRASAFHCATTELLRDTFGTRLPAPVDGILFERLQSLVTMSLRFLCEQGTLKALGQLLDCDFSAYSHSVNVYALTVPLLARLGYAQTDLVRTGLGVLLHDIGLARLPRAITRHRHSLTKHEEHIYRTHPTLGVGLVAQVPLSQEALHCIMLHHERLDGSGFPAGVKDENIPTAVRALAIADTYDLLTTAPGEARLTPFMALQLMRSEHHSTLDLYLLREFITMLSDAEMAGVWPDTLR” here?
**A.** Its value is “not soluble”.

**Q.** For “MGSDKIHHHHHHMPRNMPCPDNTMPSLSFWWRYPYLRVLVVVLLMTSQPCAISAQASTSPSVAQSSLRHLSDQLPIVGVWLTNSPSPLYYSRNLMHKAVKDLYSAGFTALYLNVWSRGSTFHRSNYAPVEGPLQKAGLALDPICTLSREGHARGMKVMPWFEYGLMEPDDAEVVKLHPDWVLARADGNPVVKMHGNHQRVWLNPAHPEVRARFIGVVIEVMKRCKMDGVQLDDHFAWPVKLGYDPYTVALYQQETGSSPPRDYSDRFWMQWRRRKLTGLLRELRQALEKEKLPVNISLAPGPFRFAYNNWLQDWELWTVGKLIDELVVQNYAYSLKGFAKDLDQPALRKAPQLGVPVHIGVLAGFGKRTTPMPILAEKVRMAAERGHGVIYFYWEGLWGQHAGIEGGIQRLRQFKQLHEKKN”, which “soluble on expression in E. coli” value is on record?
**A.** Its value is “not soluble”.

**Q.** Which “soluble on expression in E. coli” value does the source give for “MGSDKIHHHHHHMPRPRRTQISLEDTPYYHCCSRVVRRAFLCGDDTYSGKNYDHRRTWVESLLFELEAIFAIDVAAFAVMSNHLHLVLRVDIDSANGWTDREVLEQWHKLFKGDELTQKFAKGELVEAYEVSRLKHSIAIYRSRLCDISWFMRCLNEPIARQANQEDNCTGRFWEGRFKSQALLDEAAVLACMTYVDLNPIRAQLADTPEQSDHTSIQLRIRAALKGEQPSNLLPFIANECDNQPNGIAFSLMDYLQLVDDTGRIIRNDKRGYISESSAKILTRLNIPHDNWLKLTTDFGKLFHGPVGTLQELTDYCEHLEKRRRHFAASCQHFKSN” here?
**A.** The value was “not soluble”.

**Q.** With “MGSDKIHHHHHHMPSIQELENFIIYGKVRNFTLAANQANITQSAFSFQMKKLEETLGVKLILRSNRGSSLTPEGEIFYKKISEILPELVGVIYEFQQINGEKAIELKVGVLTSLGDILMNQHVNYFQKNKNILITVYSMEKNELIRALNNGKIDIASTFLFDDETLENFEKSLFRKDKIVYYAPKIKEISGTIKRDNMLKVPLVKYPPDNFMNKMIDQYFNIERKMPTVAAKLPSPYAFIEYCKQDTAGAFITERLLNTLGFKYKQEYFNIDPPYEIKAFLLYKKENPKYSAIKIFTDYVVKLNQRDS” as the sequence, how does the “soluble on expression in E. coli” value read?
**A.** Its value is “not soluble”.

— the DeepSol protein solubility set
